System: MS2 coat protein
Assay: apparent KD of MS2 coat protein; designed switch direction (-1 OFF switch, 1 ON switch): -1; higher = weaker reporter binding
In short: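 The buffer was Tris-HCl pH 7.5 with KCl, MgCl2, BSA, DTT, tRNA and Tween-20. In it, SNAP-549-labelled MS2 coat protein was titrated in doubling steps from 0.7 or 1.5 nM to 3 µM over chip-bound RNA switches transcribed by stalled E. coli RNA polymerase on Illumina chips. Apparent KD is the per-design median over clusters of curve fits to normalised fluorescence.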

[1] = input ligand: microRNA oligo, concentration not stated
[2] = Eterna round: R95, input ligand: FMN 200 uM
[3] = Eterna round: R95, input ligand: microRNA oligo, concentration not stated
[4] = Eterna round: R95, input ligand: none

Sequence: UACAUGUGAGGAUAUGUACGAAGCCCGGCUGGGCCUCGCAGGCAGAAGGCACAUGAGGAUCACCCAUGUGACCG [Enanvezave] (Eterna round: R96, puzzle: Exclusion 4)
- apparent KD of MS2 coat protein (input ligand: FMN 200 uM): 82.6 nM
- apparent KD of MS2 coat protein [1]: 13.1 nM
- apparent KD of MS2 coat protein (input ligand: none): 17.3 nM

Sequence: UACCGGCGGACCGAGGCUUUUUGCUCGUCUUGUACUACAACAUGAGGAUCACCCAUGUGGUGGUGGUCCGUUGUAGU [JL ViennaUCT Bitein mod 6] (puzzle: Sensor v3, turn-off variant 2)
- apparent KD of MS2 coat protein [2]: 18.9 nM
- apparent KD of MS2 coat protein [3]: 8.16 nM
- apparent KD of MS2 coat protein [4]: 25.4 nM

Sequence: UACGAACUAGGAUAUGCAAAGGGCUCGCUUUCCUUCGAUAAACUUGAGGAUCACCCAAGUAGAAGGAGUUUGUA [Mod 39 - Jieux - Exclusion 2] (Eterna round: R97, puzzle: Exclusion 2)
- apparent KD of MS2 coat protein (input ligand: FMN 200 uM): 30.2 nM
- apparent KD of MS2 coat protein (input ligand: none): 11.4 nM

Sequence: UACUGGACAGGAUAUGUUCUUGAGCACUUGAGGAUCACCCAAGUCAUCAAGAACUCAGGCACAGAAGGGUUUAUGG [salish99_ex5_r4_006] (Eterna round: R97, puzzle: Exclusion 5)
- apparent KD of MS2 coat protein (input ligand: FMN 200 uM): 25.5 nM
- apparent KD of MS2 coat protein (input ligand: none): 14.8 nM

Sequence: UACUUCUGAGGAUAUACAUAGAUUUACAUGAGGAUCACCCAUGUUCCUCUUUGUAUAAAUGUAGAAGGCAGAAGAU [Mat - Exclusion 5 - JL Mod - D74] (Eterna round: R97, puzzle: Exclusion 5)
- apparent KD of MS2 coat protein (input ligand: FMN 200 uM): 95.6 nM
- apparent KD of MS2 coat protein (input ligand: none): 231 nM

Sequence: UAGAGAGAUAAGGAUAUCUAUUAAAUUGUGCGUAGAGAAGGUAUCACAUGAGGAUCACCCAUGUGGUCUAAUAA [Eternabot (L1) Solution 88] (Eterna round: R97, puzzle: Exclusion 6)
- apparent KD of MS2 coat protein (input ligand: FMN 200 uM): 29.7 nM
- apparent KD of MS2 coat protein (input ligand: none): 24.1 nM

Sequence: UAGAUGGGAGGAUAUACGUAGAUACAGAUUCAUGUAGUGCUACAUGAGGAUCACCCAUGUAGAAGGCCCGUCUU [JL-ex2-2.19 Mayanne mod] (puzzle: Exclusion 2)
- apparent KD of MS2 coat protein [3]: 35.2 nM

Sequence: UAGAUGGGAGGAUAUACGUAGUUGCAGGUUCGUGUGGUGCUACAUGAGGAUCACCCAUGUAGAAGGCCCGUCUU [JL-ex2-2.30 Mayanne mod] (puzzle: Exclusion 2)
- apparent KD of MS2 coat protein [3]: 13.3 nM

Sequence: UAGAUGGGAGGAUAUGCGUAGAUGCAGGUUCGUGUGGUGCUACAUGAGGAUCACCCAUGUAGAAGGCCCGUCUU [Mod 7 R3 JL-ex2-2.29 - Jieux - Exclusion 2] (Eterna round: R97, puzzle: Exclusion 2)
- apparent KD of MS2 coat protein (input ligand: FMN 200 uM): 20.7 nM
- apparent KD of MS2 coat protein (input ligand: none): 17.6 nM

Sequence: UAGCAGCGAGGAUAUACAGACAGGUCCAAUACGUGUCUUGGACUUGAGGAUCACCCAAGUAGAAGGCGCCACAG [salish99_ex2_r4_602] (Eterna round: R97, puzzle: Exclusion 2)
- apparent KD of MS2 coat protein (input ligand: FMN 200 uM): 104 nM
- apparent KD of MS2 coat protein (input ligand: none): 62 nM

Sequence: UAGCCUUUAGUUAGGAUAUGAUAUGGGAACCAUUAUCAGAAGGAACAUGAGGAUCACCCAUGUACCGACAGGGA [Eternabot (L2) Solution 9] (Eterna round: R97, puzzle: Brourd's mod of Exclusion 4)
- apparent KD of MS2 coat protein (input ligand: FMN 200 uM): 19.9 nM
- apparent KD of MS2 coat protein (input ligand: none): 12.3 nM

Sequence: UAGGAACGAGGAUAUACACCUGCAAGUGGUGUGGGUACACCACAUGAGGAUCACCCAUGUAGAAGGCGUACCAA [Lelebi] (Eterna round: R97, puzzle: Exclusion 2)
- apparent KD of MS2 coat protein (input ligand: FMN 200 uM): 57.3 nM
- apparent KD of MS2 coat protein (input ligand: none): 12.3 nM

Sequence: UAGGAGUCAGGAUAUGCGAGAGAUUGAAGUAAGGGAUGAGAGCAGAAGGGACAUGAGGAUCACCCAUGUAAGGA [JR_Exclu4_Sub092] (puzzle: Exclusion 4)
- apparent KD of MS2 coat protein [2]: 47.7 nM
- apparent KD of MS2 coat protein [3]: 43.1 nM
- apparent KD of MS2 coat protein [4]: 52 nM

Sequence: UAGUAUCUUCAGGAUAUCAGUGGAAAACACGUAUGAGAAGGGAAGACAUGAGGAUCACCCAUGUAAAGGGUCCG [BotMod 11 - Jieux - Exclusion 6] (Eterna round: R97, puzzle: Exclusion 6)
- apparent KD of MS2 coat protein (input ligand: FMN 200 uM): 579 nM
- apparent KD of MS2 coat protein (input ligand: none): 203 nM

Sequence: UAGUGGGUACGAAGGAGUUGUAUGAGCGGAGGCUCAGUGACAUGAGGAUCACCCAUGUAGCUUUUUGCUCGUCUUAA [JR_SV3TOV2_Sub038] (puzzle: Sensor v3, turn-off variant 2)
- apparent KD of MS2 coat protein [2]: 35.7 nM
- apparent KD of MS2 coat protein [3]: 109 nM
- apparent KD of MS2 coat protein [4]: 32.4 nM

Sequence: UAGUGUUACACAGGAUAUCGCCUCUUAUUACAUGAGGAUCACCCAUGUUUAGUUAGUUACAUGUACGAGAAGGGUGUUGUAGUU [JR_ExcNG2_Sub039] (Eterna round: R96, puzzle: Exclusion NG 2)
- apparent KD of MS2 coat protein (input ligand: FMN 200 uM): 787 nM
- apparent KD of MS2 coat protein [1]: 681 nM
- apparent KD of MS2 coat protein (input ligand: none): 1010 nM

Sequence: UAUAAGGUAGGAUAUACGAAUAAAUAGGGUAGAAUAAUAACACAUGAGGAUCACCCAUGUAGAAGGACCAAGAU [Mat - Exclusion 2 - Mod of my Tesla design - D29] (puzzle: Exclusion 2)
- apparent KD of MS2 coat protein [2]: 44.5 nM
- apparent KD of MS2 coat protein [3]: 20.5 nM
- apparent KD of MS2 coat protein [4]: 24.8 nM

Sequence: UAUACCACAGUUAGGAUAUUCUAAGUAGUAGCUAAGAAGAAGGAACAUGAGGAUCACCCAUGUGGAGCCAGCGU [Eternabot (L1) Solution 99] (Eterna round: R97, puzzle: Brourd's mod of Exclusion 4)
- apparent KD of MS2 coat protein (input ligand: FMN 200 uM): 45.3 nM
- apparent KD of MS2 coat protein (input ligand: none): 18.1 nM

Sequence: UAUAUAUAGUAAGGAUAUGUAAUUAUCUUAUAAACAGAAGGUACUGACAUGAGGAUCACCCAUGUUUUAGUGUGGGCAUGUAGA [JMF's solution 39] (Eterna round: R96, puzzle: Exclusion NG 1)
- apparent KD of MS2 coat protein [1]: 49.8 nM

Sequence: UAUCCUCAAGUGAGGAUAUGACGGUCAAGACGCGUUCAGAAGGCACAUGAGGAUCACCCAUGUGAUAAAGGAAU [Eternabot (L2) Solution 38] (Eterna round: R97, puzzle: Brourd's mod of Exclusion 4)
- apparent KD of MS2 coat protein (input ligand: FMN 200 uM): 91.7 nM
- apparent KD of MS2 coat protein (input ligand: none): 20.6 nM

Sequence: UAUCGGGACUGAGGAUAUUCGUUCGAACACGAAGAAGAAGGUAGUGUCAGGGACAUGAGGAUCACCCAUGUGAUUUCAGUCCUA [JL ViennaUCT Erinle mod 3] (Eterna round: R96, puzzle: Exclusion NG 1)
- apparent KD of MS2 coat protein (input ligand: FMN 200 uM): 149 nM
- apparent KD of MS2 coat protein [1]: 102 nM
- apparent KD of MS2 coat protein (input ligand: none): 165 nM

Sequence: UAUCUUCAUAUCACAUGAGGAUCACCCAUGUUAUUCAUCUCGUAGGAUAUCGAGGUUUUUUUUUUCGAGAAGGACGUAUUGUUU [JR_ExcNG3_Sub078] (Eterna round: R96, puzzle: Exclusion NG 3)
- apparent KD of MS2 coat protein (input ligand: FMN 200 uM): 183 nM
- apparent KD of MS2 coat protein [1]: 159 nM
- apparent KD of MS2 coat protein (input ligand: none): 180 nM

Sequence: UAUGAGCUAGGAUAUGCUUUGGGCUCGCUUUCCUUCGAUAAACUUGAGGAUCACCCAAGUAGAAGGAGCUUGUA [Mod 32 - Jieux - Exclusion 2] (Eterna round: R97, puzzle: Exclusion 2)
- apparent KD of MS2 coat protein (input ligand: FMN 200 uM): 36.5 nM
- apparent KD of MS2 coat protein (input ligand: none): 15.8 nM

Sequence: UAUGAUGCAGGAUAUACAUGAGGAUCACCCAUGUCUCCAAGGGAUAAAGCCAGGCGCUGUAGAAGGGCGACGAC [Eternabot (L1) Solution 28] (Eterna round: R97, puzzle: Exclusion 3)
- apparent KD of MS2 coat protein (input ligand: FMN 200 uM): 26.9 nM
- apparent KD of MS2 coat protein (input ligand: none): 27.4 nM

Sequence: UAUGGUCUUGAGGAUAUACCAGGGUGAGUCCAGGUAGAAGGUAGGACAUGAGGAUCACCCAUGUGACGUAGUGU [Eternabot (L2) Solution 49] (Eterna round: R97, puzzle: Exclusion 6)
- apparent KD of MS2 coat protein (input ligand: FMN 200 uM): 434 nM
- apparent KD of MS2 coat protein (input ligand: none): 354 nM

Sequence: UAUGGUUAAGUCAGGAUAUACAUACAGAUAUCUGAGUAGAAGGGACAUGAGGAUCACCCAUGUAUGGUAGUGUU [Ex4 #54] (Eterna round: R97, puzzle: Brourd's mod of Exclusion 4)
- apparent KD of MS2 coat protein (input ligand: FMN 200 uM): 169 nM
- apparent KD of MS2 coat protein (input ligand: none): 76.3 nM

Sequence: UAUUAACAGGCAAGAUCCCACAUGAGGAUCACCCAUGUGCUCGUCUUAUAAGGUACUGUGACGAAAGUCACGGUACC [Sensor 3, v1 - 82] (puzzle: Sensor v3, turn-off variant 1)
- apparent KD of MS2 coat protein [2]: 23.2 nM
- apparent KD of MS2 coat protein [3]: 589 nM
- apparent KD of MS2 coat protein [4]: 29.4 nM

Sequence: UAUUACAAGCGAGAUCCUAACAUGAGGAUCACCCAUGUGCUCGUCUCAUUUUGGACUAUCACGAAAGUGAUAGUCCU [Level Boss var2-02] (puzzle: Sensor v3, turn-off variant 1)
- apparent KD of MS2 coat protein [2]: 19.9 nM
- apparent KD of MS2 coat protein [3]: 237 nM
- apparent KD of MS2 coat protein [4]: 17.2 nM

Sequence: UAUUAGCAAGCAAAUGGGUACAUGAGGAUCACCCAUGUGCUCGUCUUAUAAGGUACUGUGACGAAAGUCCCGGUACC [mod--Eli6] (Eterna round: R97, puzzle: Sensor, turn-off variant 1)
- apparent KD of MS2 coat protein (input ligand: FMN 200 uM): 28.9 nM
- apparent KD of MS2 coat protein (input ligand: none): 21.9 nM

Sequence: UAUUAGCAAGCAAGAUCCUACAUGAGGAUCACCCAUGUGCUCGUCUUAAGCUCAGAAUUACUGAGCGCUCGUCUUAU [Winner reversed engineered 23] (Eterna round: R97, puzzle: Sensor, turn-off variant 1)
- apparent KD of MS2 coat protein (input ligand: FMN 200 uM): 468 nM
- apparent KD of MS2 coat protein (input ligand: none): 645 nM

Reference: the supplement of paper PMC9170038
